The text below walks through data of US20080227735, “Aptamers Selected From Live Tumor Cells and the Use Thereof” (COMMISSARIAT A L'ENERGIE ATOMIQUE, published 2008).

In data set [1] the target is T1, Ret receptor tyrosine kinase C634Y (RetC634Y) on PC12 MEN 2A cells (Homo sapiens, UniProt P07949 P07949:29-1114, C634Y). The data set is described as follows: whole PC12 MEN 2A cells, RPMI, 37C; 102 ± 25 x1000 targets/cell; competes with D4 (p188). The settings on record: tags: stably transfected in rat PC12 cells; constitutive homodimer; chain copies: 2 (inferred); label: 5'-32P. The procedure:
(§1) The binding of the various aptamers (or of the initial pool, as control) to the PC12 MEN 2A cells is carried out in 24-well plates (experiments carried out in triplicate), with 5′-³²P-labeled RNA. 10⁵ cells per well are incubated with various concentrations of aptamers in 200 μl of RPMI for 10 min at 37° C. in the presence of 100 μg/ml of polyinosine, as non-specific competitor. After several washes, the bound sequences are recovered in 350 μl of 0.6% SDS and the amount of radioactivity recovered is related to the number of cells by measuring the protein content in each well.

Data set [2] addresses T1, Ret receptor tyrosine kinase C634Y …. In words: whole PC12 MEN 2A cells, RPMI, 37C, 10 min, polyinosine; 110 ± 47 x1000 targets/cell; no binding to parental PC12, NBTII or HeLa cells lacking Ret. The settings on record: tags: stably transfected in rat PC12 cells; constitutive homodimer; chain copies: 2 (inferred); stem-loop with internal loops (predicted). The procedure: as §1

For data set [3] the target is unchanged. In words: whole PC12 MEN 2A cells, RPMI, 37C, 10 min, polyinosine competitor; target on cell not directly proven; 102 ± 58 x1000 targets/cell. The settings on record: tags: stably transfected in rat PC12 cells; constitutive homodimer; chain copies: 2 (inferred); label: 5'-32P; stem-loop with internal loops (predicted). The method, then: as §1

T1 sequence (P07949 29-1114 C634Y, one chain of several): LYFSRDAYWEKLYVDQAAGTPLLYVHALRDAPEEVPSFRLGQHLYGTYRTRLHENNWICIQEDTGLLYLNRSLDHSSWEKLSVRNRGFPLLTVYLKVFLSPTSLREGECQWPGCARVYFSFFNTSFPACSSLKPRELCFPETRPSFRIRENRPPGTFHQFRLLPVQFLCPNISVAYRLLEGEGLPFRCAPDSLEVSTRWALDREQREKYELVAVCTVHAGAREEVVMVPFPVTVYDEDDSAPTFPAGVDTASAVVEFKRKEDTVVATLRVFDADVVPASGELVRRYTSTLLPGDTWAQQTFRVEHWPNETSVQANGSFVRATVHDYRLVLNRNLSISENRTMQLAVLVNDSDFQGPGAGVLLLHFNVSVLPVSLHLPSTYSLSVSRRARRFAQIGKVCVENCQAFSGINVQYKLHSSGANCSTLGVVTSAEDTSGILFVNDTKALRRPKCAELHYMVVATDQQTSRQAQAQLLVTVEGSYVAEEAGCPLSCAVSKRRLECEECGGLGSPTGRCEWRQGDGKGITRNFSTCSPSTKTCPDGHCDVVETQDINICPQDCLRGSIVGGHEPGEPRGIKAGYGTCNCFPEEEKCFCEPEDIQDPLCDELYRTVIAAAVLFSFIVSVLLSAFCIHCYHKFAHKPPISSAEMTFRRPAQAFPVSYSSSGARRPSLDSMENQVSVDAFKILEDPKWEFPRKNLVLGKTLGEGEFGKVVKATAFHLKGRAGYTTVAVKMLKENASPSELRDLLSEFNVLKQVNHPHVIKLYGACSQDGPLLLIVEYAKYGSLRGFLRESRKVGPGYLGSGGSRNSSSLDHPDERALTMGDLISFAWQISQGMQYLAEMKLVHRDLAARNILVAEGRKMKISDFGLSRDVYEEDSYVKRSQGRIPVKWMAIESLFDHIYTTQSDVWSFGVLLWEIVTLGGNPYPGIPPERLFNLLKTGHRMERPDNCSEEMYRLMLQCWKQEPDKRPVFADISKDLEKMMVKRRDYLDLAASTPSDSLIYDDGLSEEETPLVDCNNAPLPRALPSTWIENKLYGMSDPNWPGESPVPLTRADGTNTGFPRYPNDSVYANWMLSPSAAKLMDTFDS

B1: D12 (ssRNA)
RNA: GGGAGACAAGAAUAAACGCUCAAGGGCUUCAUAAGCUACACCGGCCAACGCAGAAAUGCCUUAAGCCCGAGUUAACGACAGGAGGCUCACAACAGGA
modifications: 2'-F pyrimidines (all C and U)
Broadly, the Kd is the equilibrium constant for the complex coming apart. In data set [1], B1 registered a Kd of 67 nM.

B2: D4 (ssRNA)
RNA: GGGAGACAAGAAUAAACGCUCAAGCGCGGGAAUAGUAUGGAAGGAUACGUAUACCGUGCAAUCCAGGGCAACGAACGACAGGAGGCUCACAACAGGA
modifications: 2'-F pyrimidines (all C and U)
Consider B2, for which the Kd in data set [2] was 35 nM.

B3: D24 (ssRNA)
RNA: GGGAGACAAGAAUAAACGCUCAAGCGGUAUGUAGGGAAUAGCACUUUUUUUGCGUAUACCUACACCGCAGCGAACGACAGGAGGCUCACAACAGGA
modifications: 2'-F pyrimidines (all C and U)
For the molecule B3, in data set [3], the Kd was 32 nM.
